Measurements from doi:10.1101/2025.01.26.634952 (bioRxiv, 2025).

Target: the molecule itself
Experiment: SAXS

Protein | binding result
SmFtsZ-WT (full-length Streptococcus mutans FtsZ) (natural protein) MAFSFDAASVQGAVIKVIGVGGGGGNAINRMIDEGVAGVEFIAANTDIQALSSSKAETVIQLGPKLTRGLGAGGQPEIGRKAAEESEEALTEALTGADMVFITAGMGGGSGTGAAPVIARIAKGLGSLTVAVVTRPFGFEGSKRGNYAIEGINELRDEVDTLLIISNNNLLEIVDKKTPLLEALSEADNVLRQGVQGITDLITSPGLINLDFADVKTVMASKGNALMGIGIGTGEERVVEAARKAIYSPLLETTIDGAEDVIVNVTGGLDMTLTEAEEASEIVNQAAGHGVNIWLGTSIDDSMKDEIRVTVVATGVRPDKADQVSGIRRQASSYTQPRAQQQAPSSNSAQPNFERRQNFDFDLNESPEMPAAEPQQTQSSSEPQQSAFGDWNLRRENIARPTEGEIDSQLKMSSFSADSDDDDELETPPFFKNR | binds
SmFtsZ-R68A (natural protein) MAFSFDAASVQGAVIKVIGVGGGGGNAINRMIDEGVAGVEFIAANTDIQALSSSKAETVIQLGPKLTAGLGAGGQPEIGRKAAEESEEALTEALTGADMVFITAGMGGGSGTGAAPVIARIAKGLGSLTVAVVTRPFGFEGSKRGNYAIEGINELRDEVDTLLIISNNNLLEIVDKKTPLLEALSEADNVLRQGVQGITDLITSPGLINLDFADVKTVMASKGNALMGIGIGTGEERVVEAARKAIYSPLLETTIDGAEDVIVNVTGGLDMTLTEAEEASEIVNQAAGHGVNIWLGTSIDDSMKDEIRVTVVATGVRPDKADQVSGIRRQASSYTQPRAQQQAPSSNSAQPNFERRQNFDFDLNESPEMPAAEPQQTQSSSEPQQSAFGDWNLRRENIARPTEGEIDSQLKMSSFSADSDDDDELETPPFFKNR | binds
